In data set [1] the target is T1, thrombin (alpha-thrombin) (UniProt P00734;P00734 328-363;364-622). Put plainly: competition (FAM fluorescence displacement); fit of pair TBA-FAM/TBA; 100 mM KCl; Fluorescence assays: 10 mM sodium cacodylate pH 7.2, 100 mM KCl, 20 °C, 20 nM FAM-aptamer (100 nM thrombin in displacement); EMSA: 1xTBE pH 8.3, 100 mM KCl (ann). A general note: In EMSA bound probe runs differently from free probe, usually more slowly.

In data set [2] the target is T1, thrombin (alpha-thrombin). Put plainly: competition (FAM fluorescence displacement); TBA-FAM Kd fixed at 15 nM; 100 mM KCl; Fluorescence assays: 10 mM sodium cacodylate pH 7.2, 100 mM KCl, 20 °C, 20 nM FAM-aptamer (100 nM thrombin in displacement); EMSA: 1xTBE pH 8.3, 100 mM KCl (ann).
The target of data set [3] is T1, thrombin (alpha-thrombin). Put plainly: competition (FAM fluorescence displacement); fit of pair TBA-FAM/TBA-N8; 100 mM KCl; Fluorescence assays: 10 mM sodium cacodylate pH 7.2, 100 mM KCl, 20 °C, 20 nM FAM-aptamer (100 nM thrombin in displacement); EMSA: 1xTBE pH 8.3, 100 mM KCl (ann).

B1: TBA (structured_DNA)
DNA: GGTTGGTGTGGTTGG
As a reminder, the Kd is the equilibrium constant for the complex coming apart. High values mean lower affinity, low ones higher affinity. On to B1, for which the Kd came out at 15.8 nM in data set [1] and 23.7 nM in data set [2].

B2: TBA-FAM (structured_DNA)
DNA: GGTTGGTGTGGTTGG
modifications: 3' hexaethyleneglycol linker
On to B2, for which the Kd in data set [1] amounted to 11.3 nM; in data set [3], 18.3 nM.

The values are drawn from article PMC4648099.
